# Measured values reported in patent US12077795B2, “Method for biocatalytic protein-oligonucleotide conjugation” (The Research Foundation for The State University of New York, priority 2016, dated 2024).
# System: heterologous proteins fused to HST-I
# Assay: HST-I catalysed protein conjugation (optical assay to monitor HST-I)
# Format: biochemical, Drosophila melanogaster
# Description: Using an optical assay developed to monitor HST-I, heterologous proteins can be covalently modified at their C-terminus by cholesterol with a t1/2 of 10-20 min at pH 7.1, 25 degrees Celsius.
molecule,measurement,setting,value
"HST-I: ~26 kDa autocatalytic C-terminal segment of the Hedgehog precursor from Drosophila melanogaster, SEQ ID NO.: 001 (protein, Drosophila melanogaster) GCFTPESTALLESGVRKPLGELSIGDRVLSMTANGQAVYSEVILFMDRNLEQMQNFVQLHTDGGAVLTVTPAHLVSVWQPESQKLTFVFADRIEEKNQVLVRDVETGELRPQRVVKVGSVRSKGVVAPLTREGTIVVNSVAASCYAVINSQSLAHWGLAPMRLLSTLEAWLPAKEQLHSSPKVVSSAQQQNGIHWYANALYKVKDYVLPQSWRHD",time for protein conjugation,in the absence of accessory proteins,< 60 min
same,half time of conjugation,"physiological buffer, room temperature",≤ 1 h
